pKd: −log10 of the molar value.
Key:
Assay in all cases: IEDB peptide-MHC binding, purified MHC/competitive/fluorescence; filed as Kd, often an IC50 or EC50 that approximates it; ≥ and ≤ were set here for values at or beyond the usual limits of such assays
HLA-A*02:01 = settings: source organism: Escherichia coli F11
HLA-B*15:42 = settings: source organism: Escherichia coli F11
HLA-B*40:13 = settings: source organism: Escherichia coli F11
HLA-B*45:06 = settings: source organism: Escherichia coli F11
HLA-B*83:01 = settings: source organism: Escherichia coli F11
HLA-A*11:01 = settings: source organism: Homo sapiens
HLA-A*26:02 = settings: source organism: Homo sapiens
HLA-A*26:03 = settings: source organism: Homo sapiens
HLA-A*68:02 = settings: source organism: Homo sapiens
HLA-B*08:01 = settings: source organism: Homo sapiens
HLA-B*08:03 = settings: source organism: Homo sapiens
HLA-B*15:09 = settings: source organism: Homo sapiens
HLA-B*15:17 = settings: source organism: Homo sapiens

| pKd (HLA-A*02:01) | pKd (HLA-B*15:42) | pKd (HLA-B*40:13) | pKd (HLA-B*45:06) | pKd (HLA-B*83:01) | pKd (HLA-A*11:01) | pKd (HLA-A*26:02) | pKd (HLA-A*26:03) | pKd (HLA-A*68:02) | pKd (HLA-B*08:01) | pKd (HLA-B*08:03) | pKd (HLA-B*15:09) | pKd (HLA-B*15:17) | Sequence |
| --- | --- | --- | --- | --- | --- | --- | --- | --- | --- | --- | --- | --- | --- |
| ≥ 10.00 | ≤ 5.30 | 6.34 | ≤ 5.30 | ≤ 5.30 |  |  |  |  |  |  |  |  | GLIPQWVTL |
|  |  |  |  |  | ≤ 4.70 | 6.28 | ≤ 4.70 | 5.49 | ≤ 4.70 | ≤ 4.70 | ≤ 4.70 | ≤ 4.70 | TYSPALNKM |
